T1: recombinant human sPLA2-IIA N1A mutant (human, UniProt P14555 22-144)
T1 construct: also called N1A sPLA2-IIA mutant
T1 sequence: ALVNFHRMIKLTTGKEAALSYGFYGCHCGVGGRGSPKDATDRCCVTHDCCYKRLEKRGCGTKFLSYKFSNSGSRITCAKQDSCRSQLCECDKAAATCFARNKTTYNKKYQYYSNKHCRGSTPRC

B1: monoclonal anti-sPLA2-IIA antibody #9C8 (antibody, IgG1, V domains shown)
VH: DVELVESGGGLVKLGGSLKLSCAASGFTFSSYYMSWVRQTPEKRLELVAAINSNGGSTYYPDTVKGRFTISRDNAKNTLYLQMSSLKSEDTALYYCARQGYGNFFDYWGQGTTLTVSS
VL: DVVMTQTPLSLPVSLGDQASISCRSSQSIVHSNGNTYLYWYLQKPGQSPKLLIYRVSNRFSGVPDRFSGSGSGTDFTLKISRVEAEDMGVYYCFQGTHVPRTFGGGTNLEIKR
notes: also called 9C8 antibody
B2: biotinylated monoclonal antibody #9C8 (antibody, mouse IgG1, V domains shown)
VH: B1 VH
VL: B1 VL
modifications: biotinylated (Pierce kit ref. 21435), sites not stated
notes: also called biotinylated #9C8
B3: monoclonal anti-sPLA2-IIA antibody #6G2 (antibody, IgG1, V domains shown)
VH: QVQLQQSGAELVKPGASVKLSCKASGYTFTSYDINWVRQRPEQGLEWIGWIFPGDGSTEYNEKFKGKATLTTDKSSSTAYMQLSRLTSEDSAVYFCARWGITAFPLFDYWGQGTALTVSS
VL: DIVLTQSPASLAVSLGQRATISCRASESVDYDGDSYMNWYQQKPGQPPKLLIYAASNLESGIPARFSGSGSGTDFTLNIHPVEEEDAATYYCLQSNEAPWTFGGGTKLEIKR
notes: also called 6G2 antibody
B4: biotinylated monoclonal antibody #6G2 (antibody, mouse IgG1, V domains shown)
VH: B3 VH
VL: B3 VL
modifications: biotinylated (Pierce kit ref. 21435), sites not stated
notes: also called #6G2-Biot; 6G2-biot

What was measured:
[1] = molecular target: T1, recombinant human sPLA2-IIA N1A mutant; assay: indirect ELISA on coated sPLA2-IIA N1A (50 ng/well), one-site saturation fit, relative Kd
[2] = molecular target: T1, recombinant human sPLA2-IIA N1A mutant; assay: indirect ELISA on coated sPLA2-IIA N1A, anti-mouse IgG-HRP detection, one-site saturation fit
[3] = molecular target: T1, recombinant human sPLA2-IIA N1A mutant; assay: indirect ELISA on coated sPLA2-IIA N1A, streptavidin-HRP detection, one-site saturation fit

Binder	Kd [1]	Kd [2]	Kd [3]
B1	1710 pM	1170 pM	
B2			3340 pM
B3	124 pM	81.7 pM	
B4			220 pM

From patent US20150086564A1 (CENTRE NATIONAL DE LA RECHERCHE SCIENTIFIQUE CNRS, published 2015)
